# ± gives the standard error.
# B1: library; numbered along this chain (parent)
# chain: MATDAALRRLLRLHRTEIAVAVDSAFPLLHALADHDVVPEDKFQETLHLKEKEGCPQAFHALLSWLLTQDSTAILDFWRVLFKDYNLERYGRLQPILDSFPKDVDLSQPRKGRKPPAVPKALVPPPRLPTKRKASEEARAAAPAALTPRGTASPGSQLKAKPPKKPESSAEQQRLPLGNGIQTMSASVQRAVAMSSGDVPGARGAVEGILIQQVFESGGSKKCIQVGGEFYTPSKFEDSGSGKNKARSSSGPKPLVRAKGAQGAAPGGGEARLGQQGSVPAPLALPSDPQLHQKNEDECAVCRDGGELICCDGCPRAFHLACLSPPLREIPSGTWRCSSCLQATVQEVQPRAEEPRPQEPPVETPLPPGLRSAGEEVRGPPGEPLAGMDTTLVYKHLPAPPSAAPLPGLDSSALHPLLCVGPEGQQNLAPGARCGVCGDGTDVLRCTHCAAAFHWRCHFPAGTSRPGTGLRCRSCSGDVTPAPVEGVLAPSPARLAPGPAKDDTASHEPALHRDDLESLLSEHTFDGILQWAIQSMARPAAPFPS
# Variants of: B1
# Assay: AIRE transcriptional activation functional score (insulin promoter-GFP; nonsense median 0, synonymous median 1) (normalised score); higher = higher AIRE activity (more reporter activation)
# Settings: with insulin promoter-GFP reporter in HEK293
# Method in brief: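 Three regions of AIRE were covered by codon-optimized NNN-codon libraries, which Bxb1 recombinase integrated into Flp-In T-REx HEK293 landing-pad cells that carry an insulin core promoter-GFP reporter. Integrants (mCherry+, BFP−) were sorted at day 7 and expanded 7 days, and then the top 10% GFP population and the unselected integrant population were tile-sequenced. The functional score is the enrichment of each variant in select versus non-select cells, with wild type subtracted. Variants required 10 counts per million in non-select, and values were rescaled to a nonsense median of 0 and a synonymous median of 1, then averaged over biological replicates.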
row,Variant,AIRE transcriptional activation functional score
1,F543G,0.595 ± 0.26
2,F543R,0.296 ± 0.13
3,F543M,0.745 ± 0.12
4,F543A,0.367 ± 0.22
5,F543I,0.17 ± 0.19
6,F543Y,0.833 ± 0.25
7,F543E,0.561 ± 0.2
8,F543C,0.138 ± 0.091
9,F543Q,0.317 ± 0.17
10,F543P,1.13 ± 0.06
11,F543S,0.493 ± 0.26
12,F543N,0.535 ± 0.17
13,F543L,0.729 ± 0.15
14,F543D,0.845 ± 0.096
15,F543V,0.18 ± 0.21
16,F543W,1.23 ± 0.085
17,F543T,0.669 ± 0.16
18,P542N,-0.142 ± 0.32
19,P542D,0.633 ± 0.23
20,P542Y,1.25 ± 0.043
21,P542E,0.426 ± 0.24
22,P542I,1.09 ± 0.22
23,P542K,0.249 ± 0.14
24,P542S,1.07 ± 0.28
25,P542L,1.07 ± 0.084
26,P542W,0.476 ± 0.038

row,Variant,AIRE transcriptional activation functional score
1,P542H,0.651 ± 0.037
2,P542V,1.16 ± 0.16
3,P542Q,0.942 ± 0.21
4,P542A,1.19 ± 0.2
5,P542C,1.05 ± 0.21
6,P542G,0.957 ± 0.13
7,P542M,1.3 ± 0.025
8,P542T,0.963 ± 0.13
9,P542F,0.923 ± 0.081
10,P542R,0.209 ± 0.13
11,A540M,0.694 ± 0.066
12,A540R,0.119 ± 0.26
13,A540E,0.617 ± 0.17
14,A540Q,0.739 ± 0.11
15,A540S,0.988 ± 0.28
16,A540V,1.11 ± 0.14
17,A540H,0.844 ± 0.43
18,A540Y,0.912 ± 0.12
19,A540C,1.37 ± 0.19
20,A540I,0.978 ± 0.18
21,A540D,0.625 ± 0.45
22,A540N,1.02 ± 0.19
23,A540P,1.07 ± 0.37
24,A540L,0.964 ± 0.28
25,A540W,0.41 ± 0.054
26,A540K,0.195 ± 0.23

row,Variant,AIRE transcriptional activation functional score
1,A540G,1 ± 0.31
2,A540F,0.417 ± 0.032
3,A540T,0.867 ± 0.26
4,P544Q,0.746 ± 0.033
5,P544C,0.924 ± 0.031
6,P544T,0.985 ± 0.49
7,P544G,1.38 ± 0.087
8,P544N,-0.709 ± 0.074
9,P544V,0.842 ± 0.046
10,P544Y,1.65 ± 0.029
11,P544I,1.16 ± 0.096
12,P544F,0.586 ± 0.11
13,P544S,0.867 ± 0.39
14,P544A,1.28 ± 0.25
15,P544L,1.19 ± 0.1
16,P544H,0.559 ± 0.22
17,P544R,0.52 ± 0.21
18,A541Y,0.977 ± 0.18
19,A541G,0.847 ± 0.25
20,A541V,1.1 ± 0.19
21,A541Q,1.05 ± 0.076
22,A541N,0.974 ± 0.061
23,A541M,0.557 ± 0.35
24,A541D,0.469 ± 0.25
25,A541E,0.858 ± 0.22
26,A541T,0.842 ± 0.18

row,Variant,AIRE transcriptional activation functional score
1,A541W,0.259 ± 0.02
2,A541C,1.43 ± 0.09
3,A541K,0.252 ± 0.083
4,A541R,0.198 ± 0.16
5,A541S,0.717 ± 0.35
6,A541F,0.75 ± 0.26
7,A541H,0.976 ± 0.41
8,A541P,0.791 ± 0.2
9,A541L,0.957 ± 0.3
10,A541I,1.3 ± 0.064
11,P539Q,0.339 ± 0.087
12,P539T,0.931 ± 0.2
13,P539W,0.719 ± 0.068
14,P539N,0.745 ± 0.36
15,P539V,0.434 ± 0.12
16,P539M,0.297 ± 0.044
17,P539R,0.158 ± 0.18
18,P539Y,-0.367 ± 0.19
19,P539S,0.85 ± 0.2
20,S545T,0.998 ± 0.12
21,S545P,0.59 ± 0.21
22,S545Y,1.35 ± 0.053
23,S545F,1.04 ± 0.1
24,S545C,1.3 ± 0.047
25,S545A,-0.21 ± 0.1
